For one data set, the target named is T1, ybbR (Bacillus subtilis, UniProt O34659).
T1 sequence (O34659 whole entry, looked up): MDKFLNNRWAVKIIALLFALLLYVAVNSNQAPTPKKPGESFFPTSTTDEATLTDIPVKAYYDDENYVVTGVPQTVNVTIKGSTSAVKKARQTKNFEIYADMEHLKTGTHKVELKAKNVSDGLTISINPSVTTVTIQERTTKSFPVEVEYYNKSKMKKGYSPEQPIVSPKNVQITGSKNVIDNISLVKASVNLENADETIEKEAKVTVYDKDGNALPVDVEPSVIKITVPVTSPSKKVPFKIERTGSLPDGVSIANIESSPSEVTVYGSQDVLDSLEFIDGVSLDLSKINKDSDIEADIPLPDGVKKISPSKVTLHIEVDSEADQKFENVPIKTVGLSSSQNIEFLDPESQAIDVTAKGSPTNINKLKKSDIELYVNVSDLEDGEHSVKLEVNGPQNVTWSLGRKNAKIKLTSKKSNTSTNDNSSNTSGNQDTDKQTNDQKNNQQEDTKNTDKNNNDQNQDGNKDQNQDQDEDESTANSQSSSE
The conditions noted are these: Sfp for ybbR; cited from earlier work.

Another data set has as its target apo-E. coli AcpP (Escherichia coli, UniProt P0A6A8). The conditions noted are these: Sfp for apo-E. coli AcpP; cited from earlier work.
For another data set, the target named is E. coli AcpP (Escherichia coli, UniProt P0A6A8). As to conditions: FAS; crypto-CP (coumarin-PPant), overnight, 37° C., 1 μM AcpH. Here is the method:
(§1) Unless otherwise noted, all coumarin-PPant labeling proceeded as follows: apo-carrier protein or peptide at 50-200 μM were labeled in 50 mM Na-HEPES pH 7.5, 10 mM MgCl2, 8 mM ATP, 0.1 μM MBP-CoaA/D/E, 0.1 μM native Sfp, and 1.1 equivalents of coumarin-pantetheine at 37° C. overnight. Crypto-protein samples were repurified using standard IMAC techniques in pH 8 lysis buffer with Ni-NTA resin, and spin-concentrated/buffer exchanged to remove imidazole and concentrate with 0.5 mL 3 kDa MWCO cellulose filters. Crypto-peptide samples were purified with HPLC, lyophilized, and redissolved in 50 mM TrisCl pH 8.0 prior to analysis.
(§2) Following AcpH treatment, an equal volume of 2×SDS-PAGE loading dye was added to crypto-carrier proteins samples and heated 5 min at 90° C., and run on 12% or 15% SDS-PAGE. Gels were fixed in 50/40/10% water/methanol/acetic acid for 30 minutes, and washed with water three times before UV imaging. Holo-carrier protein reactions were analyzed with Urea-PAGE as previously described.^6 All protein gels were Coomassie stained for evaluating total protein. Crypto-peptides were evaluated on Urea-PAGE, and were imaged immediately after running with no gel fixing.

Another data set deals with P. aeruginosa AcpP (Pseudomonas aeruginosa, UniProt O54439). The conditions noted are these: FAS; crypto-CP (coumarin-PPant), overnight, 37° C., 1 μM AcpH. The method, then:
as §1, §2

The next data set has as its system S. oneidensis AcpP. Description: AcpH qualitative CP activity, holo-SoAcpP, Urea-PAGE. The class given is biochemical. The conditions noted are these: FAS, Urea-PAGE gel-shift, shorter timescale.
In another data set the test system is P. falciparum ACP. Kind of data set: AcpH qualitative CP activity, gel-based, crypto-CP. Type of data set: biochemical. As to conditions: FAS; crypto-CP (coumarin-PPant), overnight, 37° C., 1 μM AcpH.
The next data set concerns M. tuberculosis MAS. Kind of data set: AcpH qualitative CP activity, gel-based, crypto-CP. Type of data set: biochemical. As to conditions: FAS (FAS/PKS hybrid), overnight, 37° C., 1 μM AcpH.
The target of a further data set is T2, S. coelicolor ActACP (Streptomyces coelicolor, UniProt Q02054).
T2 construct: made in house
T2 sequence (Q02054 whole entry, looked up): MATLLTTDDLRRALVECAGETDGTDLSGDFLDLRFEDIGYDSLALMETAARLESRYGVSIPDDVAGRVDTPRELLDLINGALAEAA
Kind of data set: AcpH qualitative CP activity, gel-based, crypto-CP. The class given is biochemical. The conditions noted are these: PKS; crypto-CP (coumarin-PPant), overnight, 37° C., 1 μM AcpH.

The next data set has as its target T3, A. parasiticus PksA (Aspergillus parasiticus, UniProt Q12053).
T3 construct: made in house
Kind of data set: AcpH qualitative CP activity, gel-based, crypto-CP. The conditions noted are these: PKS; crypto-CP (coumarin-PPant), overnight, 37° C., 1 μM AcpH. Type of data set: biochemical.

For another data set, the system named is G. fujikuroi Pks4. Description: AcpH qualitative CP activity, gel-based, crypto-CP. Type of data set: biochemical. The conditions noted are these: PKS; crypto-CP (coumarin-PPant), overnight, 37° C., 1 μM AcpH.
For a further data set, the target named is T4, L majuscula JamC (Moorena producens, UniProt Q6E7K7).
T4 construct: made in house
Description: AcpH qualitative CP activity, gel-based, crypto-CP. The class given is biochemical. As to conditions: PKS; crypto-CP (coumarin-PPant), overnight, 37° C., 1 μM AcpH.

The test system of another data set is L majuscula JamF. Description: AcpH qualitative CP activity, gel-based, crypto-CP. The conditions noted are these: PKS; crypto-CP (coumarin-PPant), overnight, 37° C., 1 μM AcpH. Type of data set: biochemical.
For a further data set, the system named is P. agglomerans AdmI. Kind of data set: AcpH qualitative CP activity, gel-based, crypto-CP. Type of data set: biochemical. The conditions noted are these: PKS; crypto-CP (coumarin-PPant), overnight, 37° C., 1 μM AcpH.
In the next data set the test system is P. agglomerans AdmA. Description: AcpH qualitative CP activity, gel-based, crypto-CP. The class given is biochemical. The conditions noted are these: NRPS; crypto-CP (coumarin-PPant), overnight, 37° C., 1 μM AcpH.
Another data set deals with A. orientalis CepK. Kind of data set: AcpH qualitative CP activity, gel-based, crypto-CP. The class given is biochemical. As to conditions: NRPS; crypto-CP (coumarin-PPant), overnight, 37° C., 1 μM AcpH.
The subject of another data set is P. fluorescens PltL. Kind of data set: AcpH qualitative CP activity, gel-based, crypto-CP. Type of data set: biochemical. As to conditions: NRPS; crypto-CP (coumarin-PPant), overnight, 37° C., 1 μM AcpH.
In a further data set the target is P. syringae SyrB1 (Pseudomonas syringae pv. syringae, UniProt Q52400). Description: AcpH qualitative CP activity, gel-based, crypto-CP. Type of data set: biochemical. The conditions noted are these: NRPS; crypto-CP (coumarin-PPant), overnight, 37° C., 1 μM AcpH.
The next data set has as its system YbbR13. Kind of data set: AcpH activity with modified ybbR peptide, qualitative. The class given is biochemical. As to conditions: for AcpH activity with modified ybbR peptide: coumarin-PPant labeled.
Another data set concerns the target T5, crypto-FITC-YbbR (3) (Bacillus subtilis, UniProt O34659).
T5 construct: made in house; host or cells: enzymatic labelling of FITC-ybbR peptide with Sfp and rhodamine-CoA
T5 sequence (O34659 whole entry, looked up): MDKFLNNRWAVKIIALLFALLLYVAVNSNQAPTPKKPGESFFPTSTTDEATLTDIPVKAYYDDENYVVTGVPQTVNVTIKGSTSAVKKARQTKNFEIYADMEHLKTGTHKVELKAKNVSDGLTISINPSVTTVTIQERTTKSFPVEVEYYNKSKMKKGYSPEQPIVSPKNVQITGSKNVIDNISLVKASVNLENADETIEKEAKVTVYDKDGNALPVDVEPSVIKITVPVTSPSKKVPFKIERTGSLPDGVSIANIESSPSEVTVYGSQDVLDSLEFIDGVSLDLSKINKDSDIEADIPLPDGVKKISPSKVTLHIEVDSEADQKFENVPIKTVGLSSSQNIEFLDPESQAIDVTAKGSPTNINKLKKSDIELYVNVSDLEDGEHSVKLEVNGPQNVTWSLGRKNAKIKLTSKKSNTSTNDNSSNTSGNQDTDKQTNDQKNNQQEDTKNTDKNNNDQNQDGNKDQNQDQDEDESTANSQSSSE
Kind of data set: FRET-quench microwell AcpH kinetics. Type of data set: biochemical. As to conditions: 37° C., FRET-quench microwell plate assay, [AcpH] 1 μm. The method, then: Preparation of rhodamine-labeled FITC-ybbR proceeded via reaction of 200 μM FITC-ybbR with 200 μM rhodamine WT-CoA synthesized as described previously^33 with 1 μM Sfp in 50 mM HEPES pH 7.5 and 10 mM MgCl2 for 2 hours at 37° C.
Rhodamine-labeled FITC-Ybbr as well as standard 1:1 apo-FITC-ybbR:rhodamine-CoA was subjected to an 11-point serial dilution in 50 mM TrisCl pH 8.0 to achieve final concentrations of 400-0.4 μM. […] Total reaction volumes were 50 μL and utilized a 96-well Costar 3694 plate (Corning, Lowell, Mass.). Following mixing, reactions were centrifuged for 2 minutes at 1500 rpm, and incubated at 37° C. over 4 hours in a HTS 7000 plus Bioassay Reader (Perkin Elmer, Waltham, Mass.) in kinetic mode. Comparison of enzyme reactions to buffer blank and 1:1 apo-FITC-ybbR:rhodamine-CoA standard allowed calculation of product formation and determination of Michaelis-Menten kinetics using GraphPad Prism.

A further data set deals with M. tuberculosis AcpM (Mycobacterium tuberculosis, UniProt P9WQF3). The conditions noted are these: FAS; crypto-CP (coumarin-PPant), overnight, 37° C., 1 μM AcpH.
The next data set addresses T6, V. cholerae VibB (Vibrio cholerae serotype O1, UniProt P0C6D3).
T6 sequence (P0C6D3 whole entry, looked up): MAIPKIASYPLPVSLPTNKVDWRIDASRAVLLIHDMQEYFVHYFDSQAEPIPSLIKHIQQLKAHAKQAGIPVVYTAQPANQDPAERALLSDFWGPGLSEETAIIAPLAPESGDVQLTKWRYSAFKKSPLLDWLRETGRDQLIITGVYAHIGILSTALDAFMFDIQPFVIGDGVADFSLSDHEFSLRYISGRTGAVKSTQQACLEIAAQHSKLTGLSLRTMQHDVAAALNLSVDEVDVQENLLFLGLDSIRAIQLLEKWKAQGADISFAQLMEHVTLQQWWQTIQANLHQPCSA
As to conditions: NRPS; crypto-CP (coumarin-PPant), overnight, 37° C., 1 μM AcpH.

The target in a further data set is holo-ACP (E. coli) (Escherichia coli, UniProt P0A6A8). The conditions noted are these: 37° C., HPLC detection, [AcpH] 1 (CyAcpH 0.005) μm.

Values joined by “and” are separate entries in the source; they are usually repeats but may differ in a detail not shown here. Identical values can stand only once.

Description for holo-ACP (E. coli): Holo-E. coli AcpP was prepared as a serial dilution in 50 mM TrisCl, 250 mM NaCl, 30 mM MgCl2, and 2 mM MnCl2. […] CyAcpH was prepared at 10 nM in the same AcpH buffer. […] Reactions were transferred to prewarmed shaker at 37° C. and were quenched with 100 mM EDTA after 10 minutes. Samples were centrifuged and evaluated at 210 nm with HPLC using an acetonitrile gradient to determine apo-AcpP product formation. Michaelis-Menten kinetics were calculated using GraphPad Prism (GraphPad Software, La Jolla, Calif.).
E. coli holo-ACP was diluted into 50 mM TrisCl pH 8.0, 250 mM NaCl, 10% glycerol, 30 mM MgCl2 and 2 mM MnCl2 buffer to a concentration of 800 μM. […] AcpH was diluted from MOPS lysis buffer into 50 mM TrisCl pH 8.0, 250 mM NaCl, 10% glycerol and added to an equal volume of the holo-ACP serial dilution to initiate the reaction. Reaction tubes were transferred to a pre-warmed rack at 37° C. and shaken for the duration of the experiment. […] All samples were frozen at -80° C. until evaluated by HPLC.
Kinetics samples were mixed briefly with finger flicking, and centrifuged at 13000 rpm for 10 minutes at room temperature prior to transferring contents into HPLC vials. 20 μL of each reaction time point was injected on an Agilent 1100 series HPLC with column (Burdick & Jackson OD5 #9575, 25 cm×4.6 mm ID) using an acetonitrile/water gradient. Both water and acetonitrile contained 0.05% TFA. Method gradient for each injection: 0-5 min with 10% acetonitrile, 5-30 min with 10-100% acetonitrile, 30-35 min with 100% acetonitrile, 35-37 min with 100-10% acetonitrile, 37-40 min with 10% acetonitrile. HPLC-grade solvents (J. T. Baker, Phillipsburg, N.J.) were used exclusively. Apo- & holo-ACP protein standards were used to validate the retention times identified using 210 nm UV light at approximately 21 and 19 minutes, respectively. Peak integration was performed for all samples, and substrate turnover was calculated from the ratio of apo- to holo-ACP present in the HPLC trace and the known concentration of total ACP in reaction samples. Calculated rates for AcpH versus substrate concentration were obtained through Excel data analysis and graphed in Prism GraphPad using the “Michaelis-Menten” function for enzyme kinetics, with a zero data point added for substrate concentration of 0 μM*min-1 and 0 μM substrate for AcpH graphs.

B1: Sfp: phosphopantetheinyl transferase (PPTase) from Bacillus subtilis (protein, UniProt P39135 1-224, looked up)
4'-phosphopantetheinyl …: MKIYGIYMDRPLSQEENERFMSFISPEKREKCRRFYHKEDAHRTLLGDVLVRSVISRQYQLDKSDIRFSTQEYGKPCIPDLPDAHFNISHSGRWVICAFDSQPIGIDIEKTKPISLEIAKRFFSKTEYSDLLAKDKDEQTDYFYHLWSMKESFIKQEGKGLSLPLDSFSVRLHQDGQVSIELPDSHSPCYIKTYEVDPGYKMAVCAAHPDFPEDITMVSYEELL
For B1, the kcat with ybbR was 11; with apo-E. coli AcpP, 5.8 min⁻¹.

B2: CyAcpH: acyl carrier protein hydrolase homolog from Cyanothece PCC 7822, YP13 003888700.1 (protein)
chain: MNYLAHLFLADPTPESQIGNLLGDFVKGKIDNLSSIYSPEIIRGVKTHQKIDIFTDHHPIFKTSKQRLNQNHRKFAGVIIDIYYDHFLAKNWLIYSEQDLDEFVANTYQMLEQHQLLLPEKLQKALPCMIQEDWLGSYRYFEGIDQTFSRLSRRIKRTNNIAFALEDLIQNYSQLEEDFLQFFPQLIDYVNLA
modifications: Cyanothece sp. PCC 7822
Usually Km stands for the substrate concentration at which the rate is half of its maximum. In the case of B2, the “AcpH qualitative CP activity” value is given as “YES” in the data set with E. coli AcpP; “YES” in the data set with P. aeruginosa AcpP; “YES^†” in the data set with S. oneidensis AcpP; “YES” with P. falciparum ACP; “no” in the data set with M. tuberculosis MAS; “no” with S. coelicolor ActACP. The “AcpH qualitative CP activity” value in the data set with A. parasiticus PksA is reported as “YES”; with G. fujikuroi Pks4 it was “no”; with L majuscula JamC, “YES”; in the data set with L majuscula JamF, “no”; in the data set on P. agglomerans AdmI, “no”; in the data set on P. agglomerans AdmA, “no”. Besides, the “AcpH qualitative CP activity” value with A. orientalis CepK was “no”; in the data set on P. fluorescens PltL, “no”; with P. syringae SyrB1, “no”; in the data set with M. tuberculosis AcpM, “YES”; in the data set with V. cholerae VibB it was “no”. For the same molecule, the “qualitative activity for all ybbR constructs” value in the data set with YbbR13 (Coumarin-PPant conjugated to all ybbR variations, Urea-PAGE) was “qualitative activity”. In addition, the “AcpH activity with modified ybbR peptide” value in the data set with YbbR13 (YbbR13: N-term 6xHis, C-term GFP) is on record as “YES”; in the data set on YbbR13 (YbbR13: N-term FITC, C-term N/A), “YES”; in the data set with YbbR13 (YbbR13: N-term GFP, C-term 6xHis), “YES”; with YbbR13 (YbbR13 free peptide: N-term N/A, C-term N/A), “YES”. Besides, the Km with crypto-FITC-YbbR (3) worked out at 21 µM; with holo-ACP (E. coli), 58 ± 9 µM. Moreover, the results for the Vmax with crypto-FITC-YbbR (3) and in the data set with holo-ACP (E. coli) were 0.004 ± 0.004 min⁻¹ and 1.1 ± 0.1 min⁻¹, respectively. Further, the kcat in the data set with crypto-FITC-YbbR (3) is 0.004 ± 0.004 min⁻¹; in the data set with holo-ACP (E. coli), 211 min⁻¹ and 211 ± 11 min⁻¹.

The values are drawn from patent US9823254B2, “Reversible chemoenzymatic labeling of native and fusion carrier protein motifs” (The Regents of the University of California, priority 2012, dated 2017).
